Results on 26 molecules are retold here after paper PMC12529927, “Functional microRNA targeting without seed pairing”.

For data set [1], the target named is T1, AGO2 (loaded with guide RNA) (Homo sapiens, UniProt Q9UKV8 1-859). In words: filter binding; 18 mM HEPES pH 7.4, 100 mM K-acetate, 1 mM Mg-acetate, 0.01% IGEPAL, 0.01 mg/mL yeast tRNA, 5 mM DTT, BSA, glycerol, 37 C, 4 h, 1-5 pM target; kinetics with 10. The settings on record: protein: recombinant, tags: 3xFLAG-SUMOEu1 (removed by SENPEuB cleavage).
For data set [2], the target named is T1, AGO2 (loaded with guide RNA). As to the kind of experiment: filter binding; not above no-site control; 18 mM HEPES pH 7.4, 100 mM K-acetate, 1 mM Mg-acetate, 0.01% IGEPAL, 0.01 mg/mL yeast tRNA, 5 mM DTT, BSA, glycerol, 37 C, 4 h, 1-5 pM target; kinetics with 10. The settings on record: protein: recombinant, tags: 3xFLAG-SUMOEu1 (removed by SENPEuB cleavage), label: 32P target.

For data set [3], the target named is AGO2 D669A (loaded with guide RNA) (Homo sapiens, UniProt Q9UKV8 1-859, D669A). As to the kind of experiment: hydroxyl radical footprinting; guide 3' region more accessible; 18 mM HEPES pH 7.4, 100 mM K-acetate, 1 mM Mg-acetate, 0.01% IGEPAL, 0.01 mg/mL yeast tRNA, 5 mM DTT, BSA, glycerol, 37 C, 4 h, 1-5 pM target; kinetics with 10. The settings on record: protein: recombinant, tags: 3xFLAG-SUMOEu1.

Data set [4] concerns the target T1, AGO2 (loaded with guide RNA). As to the kind of experiment: filter binding; range over four guides; 18 mM HEPES pH 7.4, 100 mM K-acetate, 1 mM Mg-acetate, 0.01% IGEPAL, 0.01 mg/mL yeast tRNA, 5 mM DTT, BSA, glycerol, 37 C, 4 h, 1-5 pM target; kinetics with 10. The settings on record: protein: recombinant, tags: 3xFLAG-SUMOEu1 (removed by SENPEuB cleavage).
Data set [5] shares this target. As to the kind of experiment: filter binding; Kd printed only in figure; similar to m11_23; 18 mM HEPES pH 7.4, 100 mM K-acetate, 1 mM Mg-acetate, 0.01% IGEPAL, 0.01 mg/mL yeast tRNA, 5 mM DTT, BSA, glycerol, 37 C, 4 h, 1-5 pM target; kinetics with 10. The conditions noted are these: protein: recombinant, tags: 3xFLAG-SUMOEu1 (removed by SENPEuB cleavage), label: 32P target, seed g2-8 paired.

The target is the same in data set [6]. In words: filter binding; no boost over m11_23; 18 mM HEPES pH 7.4, 100 mM K-acetate, 1 mM Mg-acetate, 0.01% IGEPAL, 0.01 mg/mL yeast tRNA, 5 mM DTT, BSA, glycerol, 37 C, 4 h, 1-5 pM target; kinetics with 10. The settings on record: protein: recombinant, tags: 3xFLAG-SUMOEu1 (removed by SENPEuB cleavage), label: 32P target, offset +2.
For data set [7] the target is unchanged. As to the kind of experiment: filter binding; upper bound, ~5 pM; 18 mM HEPES pH 7.4, 100 mM K-acetate, 1 mM Mg-acetate, 0.01% IGEPAL, 0.01 mg/mL yeast tRNA, 5 mM DTT, BSA, glycerol, 37 C, 4 h, 1-5 pM target; kinetics with 10. The conditions noted are these: protein: recombinant, tags: 3xFLAG-SUMOEu1 (removed by SENPEuB cleavage), label: 32P target, offset +2.

The target is the same in data set [8]. In words: filter binding; Kd printed only in figure; similar to m9_22; 18 mM HEPES pH 7.4, 100 mM K-acetate, 1 mM Mg-acetate, 0.01% IGEPAL, 0.01 mg/mL yeast tRNA, 5 mM DTT, BSA, glycerol, 37 C, 4 h, 1-5 pM target; kinetics with 10. The settings on record: protein: recombinant, tags: 3xFLAG-SUMOEu1 (removed by SENPEuB cleavage), label: 32P target, seed g2-8 paired.

The mark [9] stands for this setting: label: 32P target, g13-22 paired.
The mark [10] stands for this setting: label: 32P target, complementary to g9-19.

T1 sequence (Q9UKV8 whole entry): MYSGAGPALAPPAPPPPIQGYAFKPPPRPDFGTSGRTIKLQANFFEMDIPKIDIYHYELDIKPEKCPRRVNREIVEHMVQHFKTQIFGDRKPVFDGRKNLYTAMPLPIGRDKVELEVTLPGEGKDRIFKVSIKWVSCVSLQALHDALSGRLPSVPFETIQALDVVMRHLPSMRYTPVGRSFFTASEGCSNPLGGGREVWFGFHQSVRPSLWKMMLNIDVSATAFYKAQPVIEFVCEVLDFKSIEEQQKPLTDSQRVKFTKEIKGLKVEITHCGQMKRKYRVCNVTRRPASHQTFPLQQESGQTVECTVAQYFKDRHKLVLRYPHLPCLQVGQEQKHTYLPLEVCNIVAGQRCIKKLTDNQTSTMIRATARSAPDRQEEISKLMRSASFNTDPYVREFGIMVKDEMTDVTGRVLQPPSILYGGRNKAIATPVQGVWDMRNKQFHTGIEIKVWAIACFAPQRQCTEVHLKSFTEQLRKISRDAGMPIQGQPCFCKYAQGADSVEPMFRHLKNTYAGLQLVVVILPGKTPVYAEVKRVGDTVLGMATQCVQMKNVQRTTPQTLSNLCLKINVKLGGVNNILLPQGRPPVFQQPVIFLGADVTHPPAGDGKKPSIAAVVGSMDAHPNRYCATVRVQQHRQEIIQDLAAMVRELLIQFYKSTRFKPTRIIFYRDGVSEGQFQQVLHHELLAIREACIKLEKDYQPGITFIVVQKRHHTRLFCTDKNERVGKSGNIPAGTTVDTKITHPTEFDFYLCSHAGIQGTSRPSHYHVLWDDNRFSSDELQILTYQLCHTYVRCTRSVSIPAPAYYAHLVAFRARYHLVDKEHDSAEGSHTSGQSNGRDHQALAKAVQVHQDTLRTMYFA
Chain of AGO2 D669A (loaded with guide RNA) (Q9UKV8 whole entry D669A): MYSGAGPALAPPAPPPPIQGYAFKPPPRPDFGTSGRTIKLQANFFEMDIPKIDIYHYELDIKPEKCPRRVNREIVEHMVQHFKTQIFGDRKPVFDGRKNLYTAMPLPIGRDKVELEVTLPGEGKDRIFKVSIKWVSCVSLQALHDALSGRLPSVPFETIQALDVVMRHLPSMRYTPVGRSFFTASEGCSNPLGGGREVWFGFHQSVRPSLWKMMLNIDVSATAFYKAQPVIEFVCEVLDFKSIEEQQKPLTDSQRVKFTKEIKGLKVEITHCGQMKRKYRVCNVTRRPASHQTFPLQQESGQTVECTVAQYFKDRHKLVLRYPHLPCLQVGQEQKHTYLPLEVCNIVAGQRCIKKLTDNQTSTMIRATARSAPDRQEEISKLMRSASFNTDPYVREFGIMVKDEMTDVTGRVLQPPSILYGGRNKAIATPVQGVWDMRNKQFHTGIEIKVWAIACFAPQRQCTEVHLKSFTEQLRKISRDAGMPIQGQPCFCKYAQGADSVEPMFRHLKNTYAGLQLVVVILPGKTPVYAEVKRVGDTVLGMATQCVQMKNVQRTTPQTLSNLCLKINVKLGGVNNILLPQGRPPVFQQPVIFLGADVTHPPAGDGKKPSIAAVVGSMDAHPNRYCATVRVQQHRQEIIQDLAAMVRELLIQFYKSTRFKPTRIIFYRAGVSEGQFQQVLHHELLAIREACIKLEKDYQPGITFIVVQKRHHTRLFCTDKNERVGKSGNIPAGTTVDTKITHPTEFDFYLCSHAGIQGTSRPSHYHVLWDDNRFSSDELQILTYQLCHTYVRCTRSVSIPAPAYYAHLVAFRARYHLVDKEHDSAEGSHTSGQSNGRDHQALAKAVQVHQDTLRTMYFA

B1: let-7a / m11_22 (also labelled m10_22) (mixed)
RNA 1: UGAGGUAGUAGGUUGUAUAGUU
RNA 2: UUUUUAACUAUACAACCUUUUUUUUUUUUUUU
modifications: 5'-phosphate guide
On to B1, for which the equilibrium dissociation constant (Kd) in data set [1] (g11-22 paired) is ~0.4 nM.

B2: miR-124 wt / m11_18 (mixed)
RNA 1: UAAGGCACGCGGUGAAUGCCAA
RNA 2: UUUUUUUUCAUUCACCUUUUUUUUUUUU
modifications: 5'-phosphate guide
Turning to B2, in data set [2] (g11-18 paired), the binding result is on record as “no binding”.

B3: miR-124 wt / m9_22 (mixed)
RNA 1: UAAGGCACGCGGUGAAUGCCAA
RNA 2: UUUUUUUUGGCAUUCACCGCUUUUUUUUUUUUUUUU
modifications: 5'-phosphate guide
B3: the binding result in data set [3] (guide:target, complementary to g9-22) is on record as “binds”. In addition, in data set [4] (complementary to g9-22), the dissociation constant Kd was ~0.0265 nM.

B4: miR-124 mut / m9_22 (mixed)
RNA 1: UCUGGCUCGCGGUGAAUGCCAA
RNA 2: UUUUUUUUGGCAUUCACCGCUUUUUUUUUUUUUUUU
modifications: 5'-phosphate guide
In the case of B4, the dissociation constant (Kd) in data set [4] (label: 32P target, complementary to g9-22) is ~0.0265 nM.

B5: miR-155 wt / m13_22 (mixed)
RNA 1: UUAAUGCUAAUCGUGAUAGGGGU
RNA 2: UUUUUUCCCCUAUCACUUUUUUUUUUUUUUUU
modifications: 5'-phosphate guide
In the case of B5, in data set [4] (setting [9]), the Kd was ~0.205 nM.

B6: miR-155 mut / m13_22 (mixed)
RNA 1: UUCGUGCUAAUCGUGAUAGGGGU
RNA 2: UUUUUUCCCCUAUCACUUUUUUUUUUUUUUUU
modifications: 5'-phosphate guide
For the molecule B6, the Kd in data set [4] (setting [9]) was ~0.205 nM.

B7: miR-155 wt / 7mer-m8 (mixed)
RNA 1: UUAAUGCUAAUCGUGAUAGGGGU
RNA 2: UUUUUUUUUAAAGCAUUAUUUUUU
modifications: 5'-phosphate guide
B7: the binding result in data set [5] was “binds”.

B8: miR-155 wt / m13_20 (mixed)
RNA 1: UUAAUGCUAAUCGUGAUAGGGGU
RNA 2: UUUUUUUCCUAUCACUUUUUUUUUUUUUU
modifications: 5'-phosphate guide
For the molecule B8, the binding result in data set [2] (g13-20 paired) was “no binding”.

B9: miR-155 mut / 7mer-m8 (mixed)
RNA 1: UUCGUGCUAAUCGUGAUAGGGGU
RNA 2: UUUUUUUUUAAAGCACGAUUUUUU
modifications: 5'-phosphate guide
As for B9, the binding result in data set [5] is on record as “binds”.

B10: miR-155 mut / m11_23 (mixed)
RNA 1: UUCGUGCUAAUCGUGAUAGGGGU
RNA 2: UUUUUUACCCCUAUCACGACCUUUUUUUUUUUUUUU
modifications: 5'-phosphate guide
Take B10: the equilibrium dissociation constant (Kd) in data set [4] (label: 32P target, g11-23 paired) is ~0.0265 nM.

B11: miR-155 wt / m11_23 (mixed)
RNA 1: UUAAUGCUAAUCGUGAUAGGGGU
RNA 2: UUUUUUACCCCUAUCACGACCUUUUUUUUUUUUUUU
modifications: 5'-phosphate guide
For the molecule B11, the binding result in data set [3] (guide:target, g11-23 paired) was “binds”. In addition, the Kd in data set [4] (g11-23 paired) is ~0.0265 nM.

B12: miR-124 wt / m9_19 (mixed)
RNA 1: UAAGGCACGCGGUGAAUGCCAA
RNA 2: UUUUUUGCAUUCACCGCUUUUUUUUUUUUUUU
modifications: 5'-phosphate guide
Consider B12, for which the dissociation constant Kd in data set [4] (setting [10]) was ~0.205 nM.

B13: miR-124 mut / m9_19 (mixed)
RNA 1: UCUGGCUCGCGGUGAAUGCCAA
RNA 2: UUUUUUGCAUUCACCGCUUUUUUUUUUUUUUU
modifications: 5'-phosphate guide
For the molecule B13, the equilibrium dissociation constant (Kd) in data set [4] (setting [10]) is ~0.205 nM.

B14: let-7a / 7mer-m8 (mixed)
RNA 1: UGAGGUAGUAGGUUGUAUAGUU
RNA 2: UUUUUUUUUUUUUUUUUUCUACCUCUUUUUUU
modifications: 5'-phosphate guide
Consider B14, for which the Kd in data set [1] (label: 32P target, seed g2-8 paired) was < 0.005 nM.

B15: miR-155 mut / m11_23|+2|m2 (mixed)
RNA 1: UUCGUGCUAAUCGUGAUAGGGGU
RNA 2: UUUUACCCCUAUCACGACCUUUUUUUUAUUUU
modifications: 5'-phosphate guide
Take B15: the binding result in data set [6] (g11-23 and g2 paired) is reported as “binds”.

B16: miR-124 wt / m9_22|+3|m1_8 (mixed)
RNA 1: UAAGGCACGCGGUGAAUGCCAA
RNA 2: UUUUUUUUGGCAUUCACCGCUUUGUGCCUUAUUUUUUUUU
modifications: 5'-phosphate guide
Take B16: in data set [3] (label: 32P guide, g9-22 and g1-8 paired, offset +3), the binding result is given as “binds”.

B17: miR-155 mut / m13_20 (mixed)
RNA 1: UUCGUGCUAAUCGUGAUAGGGGU
RNA 2: UUUUUUUCCUAUCACUUUUUUUUUUUUUU
modifications: 5'-phosphate guide
Regarding B17, in data set [2] (g13-20 paired), the binding result is “no binding”.

B18: miR-155 mut / m11_23|+2|m2_7 (mixed)
RNA 1: UUCGUGCUAAUCGUGAUAGGGGU
RNA 2: UUUUACCCCUAUCACGACCUUUGCACGAUUUU
modifications: 5'-phosphate guide
As to B18, the dissociation constant (Kd) in data set [7] (g11-23 and g2-7 paired) is < 0.005 nM.

B19: miR-155 mut / m11_23|+2|m2_4 (mixed)
RNA 1: UUCGUGCUAAUCGUGAUAGGGGU
RNA 2: UUUUACCCCUAUCACGACCUUUUUUCGAUUUU
modifications: 5'-phosphate guide
B19: in data set [6] (g11-23 and g2-4 paired), the binding result is given as “binds”.

B20: miR-155 mut / m11_23|+2|m2_3 (mixed)
RNA 1: UUCGUGCUAAUCGUGAUAGGGGU
RNA 2: UUUUACCCCUAUCACGACCUUUUUUUGAUUUU
modifications: 5'-phosphate guide
As to B20, in data set [6] (g11-23 and g2-3 paired), the binding result is recorded as “binds”.

B21: miR-155 mut / m11_23|+2|m2_8 (mixed)
RNA 1: UUCGUGCUAAUCGUGAUAGGGGU
RNA 2: UUUUACCCCUAUCACGACCUUAGCACGAUUUU
modifications: 5'-phosphate guide
On to B21, for which the Kd in data set [7] (g11-23 and g2-8 paired) is < 0.005 nM.

B22: miR-124 wt / 7mer-m8 (mixed)
RNA 1: UAAGGCACGCGGUGAAUGCCAA
RNA 2: UUUUUUUUUUUGUGCCUUUUUUUU
modifications: 5'-phosphate guide
Consider B22, for which the binding result in data set [8] is recorded as “binds”.

B23: miR-124 mut / 7mer-m8 (mixed)
RNA 1: UCUGGCUCGCGGUGAAUGCCAA
RNA 2: UUUUUUUUUUUGAGCCAGUUUUUU
modifications: 5'-phosphate guide
Regarding B23, in data set [8], the binding result is given as “binds”.

B24: miR-124 mut / m11_18 (mixed)
RNA 1: UCUGGCUCGCGGUGAAUGCCAA
RNA 2: UUUUUUUUCAUUCACCUUUUUUUUUUUU
modifications: 5'-phosphate guide
With B24, the binding result in data set [2] (g11-18 paired) is “no binding”.

B25: miR-155 mut / m11_23|+2|m1_8 (mixed)
RNA 1: UUCGUGCUAAUCGUGAUAGGGGU
RNA 2: UUUUUUACCCCUAUCACGACCUUAGCACGAAUUUUUUUUU
modifications: 5'-phosphate guide
Take B25: in data set [7] (g11-23 and g1-8 paired), the Kd is < 0.005 nM.

B26: miR-155 wt / m11_23|+2|m1_8 (mixed)
RNA 1: UUAAUGCUAAUCGUGAUAGGGGU
RNA 2: UUUUUUACCCCUAUCACGACCUUAGCAUUAAUUUUUUUUU
modifications: 5'-phosphate guide
In the case of B26, the binding result in data set [3] (label: 32P target (kon) or 32P guide (probing), g11-23 and g1-8 paired, offset +2) was “binds”.
